Reference: US11510990B2, “Conjugates of fusion proteins of GLP-1 and FGF21” (BEIJING QL BIOPHARMACEUTICAL CO., LTD., priority 2020, dated 2022)
Residue numbers refer to the chain shown, from its start.

B1: Compound 14: GLP-1/FGF21 fusion polypeptide SEQ ID NO: 14 conjugated with Moiety A at 222K (conjugate)
chain: HGEGTFTSDVSSYLEEQAAREFIAWLVRGGGGQEPGQEPGQEPGQEPGQEPHPIPDSSPLLQFGGQVRQRYLYTDDAQQTEAHLEIREDGTVGGAADQSPESLLQLRALRPGVIQILGVRTSRFLCQRPDGALYGSLHFDPEACSFRELLLEDGYNVYQSEAHGLPLHLPGQRSPHRDPAPRGPARFLPLPGLPPALPEPPGILAPQPPDVGSSDPLSLVGKSQGRSPSYES
modifications: Moiety A conjugated at K222
B2: Compound 5: GLP-1/FGF21 fusion polypeptide SEQ ID NO: 5 conjugated with Moiety A at 51K and 222K (conjugate)
chain: HGEGTFTSDVSSYLEEQAAREFIAWLVRGGGGGGGSGGGGSGGGGSGGGGKHPIPDSSPLLQFGGQVRQRYLYTDDAQQTEAHLEIREDGTVGGAADQSPESLLQLRALRPGVIQILGVRTSRFLCQRPDGALYGSLHFDPEACSFRELLLEDGYNVYQSEAHGLPLHLPGQRSPHRDPAPRGPARFLPLPGLPPALPEPPGILAPQPPDVGSSDPLSLVGKSQGRSPSYAS
modifications: Moiety A conjugated at K51 and K222
B3: Compound 2: GLP-1/FGF21 fusion polypeptide SEQ ID NO: 2 conjugated with Moiety A at 20K and 231K (conjugate)
chain: B2 chain with R20K, K51S, K222G, A231K
modifications: Moiety A conjugated at K20 and K231
B4: Compound 11: GLP-1/FGF21 fusion polypeptide SEQ ID NO: 11 conjugated with Moiety A at 221K (conjugate)
chain: B2 chain with K51S, G221K, K222P, A231E
modifications: Moiety A conjugated at K221
B5: Compound 12: GLP-1/FGF21 fusion polypeptide SEQ ID NO: 12 conjugated with Moiety A at 225K (conjugate)
chain: B2 chain with K51S, K222G, G225K, A231E
modifications: Moiety A conjugated at K225
B6: Compound 13: GLP-1/FGF21 fusion polypeptide SEQ ID NO: 13 conjugated with Moiety A at 222K (conjugate)
chain: B1 chain with Q33A, E34Q, Q37A, E38Q, Q41A, E42Q, Q45A, E46Q, Q49A, E50Q
modifications: Moiety A conjugated at K222
B7: Compound 15: GLP-1/FGF21 fusion polypeptide SEQ ID NO: 15 conjugated with Moiety A at 231K (conjugate)
chain: B2 chain with K51S, K222P, A231K
modifications: Moiety A conjugated at K231
B8: Compound 20: GLP-1/FGF21 fusion polypeptide SEQ ID NO: 20 conjugated with Moiety A at 51K and 221K (conjugate)
chain: B2 chain with G221K, K222P, A231E
modifications: Moiety A conjugated at K51 and K221
B9: Compound 21: GLP-1/FGF21 fusion polypeptide SEQ ID NO: 21 conjugated with Moiety A at 51K and 225K (conjugate)
chain: B2 chain with K222G, G225K, A231E
modifications: Moiety A conjugated at K51 and K225
B10: Compound 22: GLP-1/FGF21 fusion polypeptide SEQ ID NO: 22 conjugated with Moiety A at 51K and 231K (conjugate)
chain: HGEGTFTSDVSSYLEEQAAREFIAWLVRGGGGGGGSGGGGSGGGGSGGGGKHPIPDSSPLLQFGGQVRQRYLYTDDAQQTEAHLEIREDGTVGGAADQSPESLLQLRALRPGVIQILGVRTSRFLCQRPDGALYGSLHFDPEACSFRELLLEDGYNVYQSEAHGLPLHLPGQRSPHRDPAPRGPARFLPLPGLPPALPEPPGILAPQPPDVGSSDPLSLVGGSQGRSPSYK
modifications: Moiety A conjugated at K51 and K231
B11: Compound 50: GLP-1/FGF21 fusion polypeptide SEQ ID NO: 117 conjugated with Moiety A at 51K and 233K (conjugate)
chain: HGEGTFTSDVSSYLEEQAAREFIAWLVRGGGGGGGSGGGGSGGGGSGGGGKHPIPDSSPLLQFGGQVRQRYLYTDDAQQTEAHLEIREDGTVGGAADQSPESLLQLRALRPGVIQILGVRTSRFLCQRPDGALYGSLHFDPEACSFRELLLEDGYNVYQSEAHGLPLHLPGQRSPHRDPAPRGPARFLPLPGLPPALPEPPGILAPQPPDVGSSDPLSLVGGSQGRSPSYESK
modifications: Moiety A conjugated at K51 and K233
B12: Compound 48: GLP-1/FGF21 fusion polypeptide SEQ ID NO: 88 conjugated with Moiety A at 51K and 222K (conjugate)
chain: HGEGTFTSDVSSYLEEQAAREFIAWLVRGGGGAQPGAQPGAQPGAQPGAQKHPIPDSSPLLQFGGQVRQRYLYTDDAQQTEAHLEIREDGTVGGAADQSPESLLQLRALRPGVIQILGVRTSRFLCQRPDGALYGSLHFDPEACSFRELLLEDGYNVYQSEAHGLPLHLPGQRSPHRDPAPRGPARFLPLPGLPPALPEPPGILAPQPPDVGSSDPLSLVGKSQGRSPSYES
modifications: Moiety A conjugated at K51 and K222
B13: Compound 51: GLP-1/FGF21 fusion polypeptide SEQ ID NO: 148 conjugated with Moiety B at 51C and 222C (conjugate)
chain: B2 chain with R20K, K51C, R107K, R110K, R120K, R173K, K222C, A231E
modifications: Moiety B conjugated at C51 and C222
B14: Compound 52: GLP-1/FGF21 fusion polypeptide SEQ ID NO: 149 conjugated with Moiety B at 51C and 225C (conjugate)
chain: B2 chain with R20K, K51C, R107K, R110K, R120K, R173K, K222G, G225C, A231E
modifications: Moiety B conjugated at C51 and C225
B15: Compound 54: GLP-1/FGF21 fusion polypeptide SEQ ID NO: 151 conjugated with Moiety B at 51C and 231C (conjugate)
chain: B2 chain with R20K, K51C, R107K, R110K, R120K, R173K, K222G, A231C
modifications: Moiety B conjugated at C51 and C231
B16: Compound 66: GLP-1/FGF21 fusion polypeptide SEQ ID NO: 163 conjugated with Moiety B at 51C and 225C (conjugate)
chain: HGEGTFTSDVSSYLEEQAAKEFIAWLVKGGGGSAPGSPAGSPTGSAPGSPCHPIPDSSPLLQFGGQVRQRYLYTDDAQQTEAHLEIREDGTVGGAADQSPESLLQLKALKPGVIQILGVKTSRFLCQRPDGALYGSLHFDPEACSFRELLLEDGYNVYQSEAHGLPLHLPGQKSPHRDPAPRGPARFLPLPGLPPALPEPPGILAPQPPDVGSSDPLSLVGGSQCRSPSYES
modifications: Moiety B conjugated at C51 and C225

Experiment: Body weight reduction in C57BL/6 mice, daily subcutaneous dosing
Type: in vivo
Details: 30 nmol/kg
Protocol: FIGS. 1A-1F show in vivo activities of fusion protein conjugates. […] Body weight was measured daily. […] Compared to Vehicle control: ***, p<0.001. All data are expressed as mean values and standard error (SEM).
10 week old male C57BL/6 mice were injected everyday subcutaneously with 30 nmol/kg exemplary fusion protein conjugates for 10 or 14 days (n=5). Body weight was daily monitored for each individual animal. Day 1 and Day 10 (or Day 14) are first day and last day of molecule dosage. % BW loss=100*(BW on Day n-BW on Day 1)/(BW on Day 1). Data are indicated as mean values and standard error (SEM) or pooled values. Statistical analysis was performed by One-way ANOVA. Body weight reduction on Day 11 in Table 5 is calculated by −1*(% BW loss−% BW loss of vehicle group).

Molecule | BW reduction efficacy compared to Compounds 10 and 13
B1 | lower BW reduction efficacy

Same assay, conditions: 30 nmol/kg, 10-day dosing period (FIGS. 1A-1B)

Molecule | BW reduction compared to Semaglutide
B2 | much more enhanced and persistent BW reduction

Same assay, conditions: male C57BL/6 mice, 30 nmol/kg subcutaneously everyday, Day 11

Molecule | Body weight reduction at 30 nmol/kg (% reduction compared to vehicle)(Day11) [%]
Semaglutide [reference compound] | 6.4
B2 | 14.4
B1 | 9.8
B3 | 18.2
B4 | 10.4
B5 | 22.8
B6 | 23.6
B7 | 11.3
B8 | 26.6
B9 | 34.4
B10 | 32.9
B11 | 9.4
B12 | 27.8
B13 | 26.2
B14 | 20.9
B15 | 13.5
B16 | 18.9
